Experimental data reported in the supplement of paper PMC9732359.
± gives the uncertainty stated by the source.

Test: protein stability index of a GFP-peptide fusion (yeast GPS) (PSI 1-4); higher = more stable; sorted into four equal gates, so the index is relative within each strain
Procedure, shortened: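 Sequencing reads from sorted gates were used to score each peptide. The library consisted of tiled 17-residue yeast protein peptides fused downstream of GFP on a Cherry-expressing plasmid, pooled and carried in yeast. Mid-log cultures in leucine-free medium were split into four equal gates by GFP/Cherry ratio, and each gate's plasmids were PCR-amplified and Illumina-sequenced. The protein stability index adds up, over all gates, the read frequency multiplied by the gate number.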

Sequence | protein stability index (doa10∆) | protein stability index (pdr5∆) | protein stability index (ubr1∆) | protein stability index (san1∆)
NNKKVVGTAIDSILNYA [ECM29] | 2.4 ± 0.21 | 2.75 ± 0.12 | 3.06 ± 0.083 | 
NNKNKRVTGAGGQQRRM [RPC53] |  | 2.78 ± 0.2 | 3.33 ± 0.073 | 
NNNNNNNNSNNIMSASG [YGL172W/NUP49] | 2.73 ± 0.059 | 2.48 ± 0.038 | 3.1 ± 0.059 | 2.67 ± 0.077
NNPLVQKKNFLFKPLNK [ARP7] | 2.33 ± 0.23 | 2.51 ± 0.14 |  | 2.2 ± 0.28
NNRMGSYDCTGVNELAP [POP1] | 2.63 ± 0.099 | 2.42 ± 0.076 | 2.79 ± 0.059 | 2.74 ± 0.085
NNRSVSMQTIAETIILS [SRB5] | 2.02 ± 0.052 | 1.91 ± 0.068 | 1.84 ± 0.031 | 1.56 ± 0.07
NNRWAENNYKKRLLGTA [RPS23A] | 2.37 ± 0.27 | 2.78 ± 0.16 |  | 
NNSALSNVNSDIYFKLK [RPT3] | 3.12 ± 0.14 | 2.96 ± 0.12 | 3.25 ± 0.073 | 3.27 ± 0.14
NNSNNNNIIRIQQLISQ [SNF11] | 2.25 ± 0.06 | 2.39 ± 0.075 | 2.69 ± 0.046 | 2.54 ± 0.08
NNTEKNDVTNKNINIGK [SIR4] | 2.1 ± 0.055 | 2.21 ± 0.052 | 2.37 ± 0.044 | 2.9 ± 0.043
NNTNNNNTNTGASGVDD [SWI1] | 2.75 ± 0.073 | 2.95 ± 0.065 | 3.3 ± 0.048 | 3.05 ± 0.072
NNWFSLPGDMLAVCDEL [SIN4] | 2.33 ± 0.073 | 2.21 ± 0.079 | 1.85 ± 0.067 | 1.73 ± 0.13
NPFEDDMDGVDFNQAFE [BRN1] | 3.31 ± 0.05 | 3.21 ± 0.064 | 3.3 ± 0.049 | 3.39 ± 0.038
NPHQKDQLIISSSANKL [YML103C/NUP188] | 2.45 ± 0.15 | 2.71 ± 0.094 | 2.78 ± 0.069 | 2.29 ± 0.15
NPIIENNVDNKYKSGGK [SSN2] | 2.92 ± 0.052 | 3.01 ± 0.041 | 3.07 ± 0.041 | 3.04 ± 0.043
NPKYDTSNASMNTTLGS [YAR002W/NUP60] | 3.12 ± 0.045 | 3.15 ± 0.044 | 3.14 ± 0.047 | 3.12 ± 0.034
NPLAKTMADAVRELGIL [SEC65] | 2.78 ± 0.058 | 2.3 ± 0.06 | 1.84 ± 0.053 | 2.42 ± 0.075
NPMKKHKPNEGRTPNIS [SIR4] | 2.88 ± 0.068 | 2.86 ± 0.055 | 2.97 ± 0.036 | 2.88 ± 0.052
NPPYSQCIVYPNCLFIL [SOH1] | 1.76 ± 0.038 | 2.06 ± 0.044 | 1.86 ± 0.035 | 1.86 ± 0.06
NPVTLNEDSKAFHTAVL [NUT1] | 2.81 ± 0.057 | 2.96 ± 0.076 | 2.41 ± 0.059 | 2.82 ± 0.075
NQDSVKTYALESINNVV [RPN2] | 3.23 ± 0.1 | 3.21 ± 0.1 | 3.31 ± 0.058 | 2.95 ± 0.074
NQLEDFILELEHKTPEL [YIL149C/MLP2] | 2.74 ± 0.14 | 3.28 ± 0.16 | 3.35 ± 0.12 | 3.07 ± 0.14
NQSFIQQKANLLSSSNF [COR1] | 2.17 ± 0.067 | 1.91 ± 0.069 | 1.76 ± 0.042 | 2.04 ± 0.083
NQTNINSLAVRGKDCTV [SCL1] | 2.83 ± 0.14 | 3.26 ± 0.088 | 3.19 ± 0.12 | 3.29 ± 0.068
NQVMMDRKIQGWLGALT [ARP7] | 2.84 ± 0.069 | 3.18 ± 0.052 | 2.98 ± 0.044 | 3 ± 0.054
NRERFISKLFLRGDSVI [SMD2] | 2.91 ± 0.076 | 1.65 ± 0.089 | 3.03 ± 0.15 | 1.51 ± 0.14

Sequence | protein stability index (doa10∆) | protein stability index (pdr5∆) | protein stability index (ubr1∆) | protein stability index (san1∆)
NRGNKKRHRSSYYDNDL [YML031W/NDC1] | 3.02 ± 0.13 | 3.29 ± 0.095 | 3 ± 0.11 | 3.24 ± 0.072
NRKVLQALEKIGIVEIS [RPS19A] | 2.34 ± 0.1 | 2.27 ± 0.1 | 2.31 ± 0.07 | 2.24 ± 0.074
NRKVRAGRGFTLAEVKA [RPL13A] | 2.84 ± 0.054 | 2.97 ± 0.061 | 2.48 ± 0.044 | 2.82 ± 0.043
NRMQISPDQMRNLQMGL [GRR1] |  | 3.18 ± 0.12 | 2.83 ± 0.12 | 3.27 ± 0.11
NRQAAASVVPSASSLVI [RPL12A] | 1.73 ± 0.03 | 2.17 ± 0.038 | 1.83 ± 0.032 | 1.98 ± 0.049
NRRGMLALSGTSASNTS [SNF5] | 3.02 ± 0.064 | 3.1 ± 0.064 | 2.92 ± 0.066 | 2.86 ± 0.064
NRRKQSFVLNKNTIDFE [RPN4] | 2.86 ± 0.062 | 1.74 ± 0.045 | 1.88 ± 0.044 | 2.1 ± 0.075
NRTKSTTIKNIDILNRT [SMC4] | 2.15 ± 0.046 | 2.55 ± 0.043 | 2.53 ± 0.041 | 2.38 ± 0.062
NRTMDGKPVSLPLLYNF [FAS1] | 3.08 ± 0.093 | 3.31 ± 0.1 | 2.93 ± 0.073 | 2.7 ± 0.072
NRTVLLKIFKIFCIDLE [SRB8] | 1.94 ± 0.094 | 2.15 ± 0.089 | 2.3 ± 0.071 | 1.89 ± 0.13
NSADAAYAQVEIQPRAN [FAS2] | 2.82 ± 0.054 | 2.76 ± 0.065 | 2.79 ± 0.048 | 2.21 ± 0.061
NSASNNGNLTSNQLISN [SWI1] | 1.96 ± 0.084 | 2.14 ± 0.078 | 2.75 ± 0.056 | 2.45 ± 0.11
NSDIANLRTQVTQQKRS [SMC1] | 3.05 ± 0.074 | 3.1 ± 0.055 | 3.08 ± 0.066 | 2.97 ± 0.062
NSESDSKSDSDSEERDP [ITC1] | 3.14 ± 0.14 | 2.99 ± 0.2 | 3.22 ± 0.12 | 3.01 ± 0.12
NSFIKANLPWLGKAQNW [RPN2] |  | 2.6 ± 0.13 |  | 
NSKDHKKITLQLLDTSN [SIN4] | 3.07 ± 0.07 | 3.39 ± 0.078 | 2.96 ± 0.053 | 3.04 ± 0.074
NSLFYLKWSACTSLMDI [IRR1] | 1.68 ± 0.073 | 2.31 ± 0.047 | 1.83 ± 0.042 | 1.61 ± 0.13
NSLLSNFNDIPPSVTLQ [YDL088C/ASM4] | 2.63 ± 0.081 | 1.98 ± 0.072 | 2.72 ± 0.11 | 2.04 ± 0.11
NSLLTIVWRFISENTFP [RPC34] | 1.82 ± 0.059 | 2.05 ± 0.042 | 2.31 ± 0.045 | 2.08 ± 0.076
NSMDISMFSGLDSTGFD [MED2] | 2.83 ± 0.059 | 3.06 ± 0.055 | 2.83 ± 0.049 | 3.21 ± 0.041
NSNSNQQSTDADEDDED [RPT1] | 2.32 ± 0.095 | 2.34 ± 0.093 | 2.37 ± 0.061 | 2.46 ± 0.091
NSNSNSGSLFGSNNAQT [YGL172W/NUP49] | 2.6 ± 0.13 | 3.24 ± 0.085 | 3.11 ± 0.11 | 2.9 ± 0.3
NSPTSFFDGSASSTPIP [YOR098C/NUP1] | 3.19 ± 0.07 | 2.8 ± 0.049 | 2.84 ± 0.046 | 2.94 ± 0.052
NSSEIQSAIRPAGQATQ [RPL4A] | 2.63 ± 0.085 | 2.85 ± 0.094 | 2.57 ± 0.062 | 2.77 ± 0.039
NSSSMEEVMRIALMGQD [ESC2] | 2.69 ± 0.068 | 2.67 ± 0.075 | 2.62 ± 0.049 | 2.19 ± 0.12
